Tests used:
bovine serum albumin = biological target: T1, bovine serum albumin (bovine, UniProt P02769 25-607); assay: ELISA on coated antigens (data not shown)
T1 construct: Irrelevant antigen in the ELISA; also called BSA

ovalbumin = biological target: T2, ovalbumin (UniProt P01012 2-386); assay: ELISA on coated antigens (data not shown)
T2 construct: Irrelevant antigen in the ELISA
T2 sequence (looked up): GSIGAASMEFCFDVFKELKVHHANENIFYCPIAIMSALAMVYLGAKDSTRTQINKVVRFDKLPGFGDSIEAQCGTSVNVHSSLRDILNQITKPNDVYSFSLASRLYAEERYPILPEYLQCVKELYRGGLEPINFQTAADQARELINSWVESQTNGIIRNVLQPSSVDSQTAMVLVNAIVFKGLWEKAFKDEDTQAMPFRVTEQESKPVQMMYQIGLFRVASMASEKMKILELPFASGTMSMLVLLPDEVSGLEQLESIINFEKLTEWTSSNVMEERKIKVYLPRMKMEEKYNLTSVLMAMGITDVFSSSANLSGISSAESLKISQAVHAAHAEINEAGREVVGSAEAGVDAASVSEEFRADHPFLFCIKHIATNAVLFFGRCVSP

T1 sequence (P02769 25-607 limits assumed): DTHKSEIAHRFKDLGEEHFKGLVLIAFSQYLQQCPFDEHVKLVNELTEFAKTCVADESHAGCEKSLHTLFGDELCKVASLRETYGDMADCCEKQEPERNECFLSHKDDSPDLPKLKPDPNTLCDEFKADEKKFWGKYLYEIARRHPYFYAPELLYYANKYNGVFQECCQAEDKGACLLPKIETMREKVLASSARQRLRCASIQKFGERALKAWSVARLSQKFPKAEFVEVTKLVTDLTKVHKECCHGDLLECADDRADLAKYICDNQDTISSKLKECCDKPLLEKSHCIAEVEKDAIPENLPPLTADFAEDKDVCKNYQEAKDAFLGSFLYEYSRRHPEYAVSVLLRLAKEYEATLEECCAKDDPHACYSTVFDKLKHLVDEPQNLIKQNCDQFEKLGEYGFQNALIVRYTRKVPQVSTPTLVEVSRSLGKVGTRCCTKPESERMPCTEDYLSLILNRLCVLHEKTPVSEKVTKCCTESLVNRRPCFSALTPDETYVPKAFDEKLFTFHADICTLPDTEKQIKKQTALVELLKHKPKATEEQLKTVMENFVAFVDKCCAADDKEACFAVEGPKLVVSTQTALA

B1: recombinant B9165 Fab (Fab, V domains shown)
VH: GAEVKKPGASVKVSCKASDYTFSSYYMHWVRQAPGQGLEWMGIINPSGGSTSYAQKFQGRVTMTRDTSTNTVYMELSSLRSEDTAVYYCARDQVVVAATLSNYGMDVWGQGTTVTVSS
VL: ELTQSPGTLSLSPGERATLSCRASQSVSSSYLAWYQQKPGQAPRLLIYDASNRATGIPARFSGSGSGTDFTLTISSLEPEDFAVYYCQQGTNWGIAFGQGTRLDIKR
notes: Soluble Fab (mu Fd region plus kappa light chain) cloned from hybridoma B9165 by phage display in pComb3 and expressed in E. coli; also called cloned B9165 Fab; Fab of COU-1
B1: no binding (bovine serum albumin); no binding (ovalbumin).

Source: patent publication US20050048070A1 (published 2005)
